Source: the DeepSol protein solubility set

assay: soluble on expression in E. coli; label from the status in PepcDB or PDB records

**Q.** Which “soluble on expression in E. coli” value does the source give for “GPGSMQEIIDTVNRYTLRSAAFRDKPTPGLAARQFLCSLLLHRKLDSIRLSSIARYMFSTEALIAVSRDGIQTISCEGNTLWPICTIPNGLTSEISGVAVTPEGTLVCSSNGICYLEGENLRVAEDCASSSYAQNVLCISCTPDGRYIATGGGTATVTVWTSDLKPLHHFAGHTDWVRFVKFARGRSPALQLFSTGDDGVICQWDVLAGSLISRVDYSLGESIQLFEVSYYSGLMAISSGTSLIALYCPQSDNTTRAVGEDVLRLQPMALITGAHEYTPTAGKFTDDSQWLASASEDETIALTYVLDPQTCFVCKKFVTRRRCFSFMNIFNSICILAAPPVSSVIVIAACSSDGTVVQWVVDPRTNRASYTKKLQLHLGSFLGMDLIPGDDLNHLL” here?
**A.** not soluble

**Q.** Which “soluble on expression in E. coli” value does the source give for “GPGSMSAEAVADLERRAAAAETAIGELSLRLQTMGSSVGAGIEPRLRELLKLMHEDRAEFEAVRAQRDELKEENERLKIQVAKHEYRIKHLLRTIEEISPEENS” here?
**A.** soluble

**Q.** With “GPGSMTAGAPTTVAGEYPRPSASLHPSVDCSSLNRVPTATAAAPPPPSPRLSGYVMPSVVNPYSQGASQQPAMAHVSEPVNPASYLQQANAMGRWSYQQPPLQQPQYPTLDPVATRVAAIDAEEAAMAAEEMTMRAKLAELQVARKQQEEEQLYLSHGWAQMLEKEERYYTEPVIDLRPDIMAREQQCAMLHNHLQQVEAQAQHAQSQLQGTEYILRDAESFEQERRRVQDAFQEVERRRRECVARAERYFDVEAKRVVEGNKVIRKLDSQLREMTQRGPLAQLQDGNRHPFHRS” as the sequence, how does the “soluble on expression in E. coli” value read?
**A.** not soluble

**Q.** For “GPGSMTDYIRDGQAIYDRSFAIIRAEADLRHIPADLEKLAVRVIHACGMVDVANDLAFSEGAGKAGRNALLAGAPILCDARMVAEGITRSRLPADNRVIYTLSDPSVPELAKKIGNTRSAAALDLWLPHIEGSIVAIGNAPTALFRLFELLDAGAPKPALIIGMPVGFVGAAESKDELAANSRGVPYVIVRGRRGGSAMTAAAVNALASERE”, which “soluble on expression in E. coli” value is on record?
**A.** soluble

**Q.** Which “soluble on expression in E. coli” value does the source give for “GPGSMTSPAQAQVHSAPSRHAHTSILSQQMLSTPAGHPVSQPDTSQAAPDAPVWRPTTVPWKPVDTQQSACSALPAKTDDAIAAHSLQWERDAAVGNPNDESGRVVSQAFAFPRWMGPPALTSTATSREEGDSPTATVPSMEERWSTFQRLAQASEATFRSMSEATARQHADVTAHQKEIAAYQESQRQLTLQQQQRLDSLTRECAQLRQTEASTKEVVAHQVERLVALESELQTTRVQLSEIRLAQAQCVEERKRLQQACKMHEVHTSELQASLQFADEVVRSMRQTVAACEREKNEALMQQYSNFESYRNNLIAAYDKRAAEARDEFAKRVESLQAGMLETVAKREEQLKASWEETATRMRHEYDELVRLGQQRRAAMDTELRERKEQLERDKEFMRVQQREEADMMEQRFRAREETLLDDIARRERELREREAVLRAAQAQQEVDVQRRLQAREAELRAAHDAALKRMADQAAAEREKLSENFMERLQQLSNAHMQQERELERMHREKEREMAQRYRLSGIDGGDRGEVRDRRATEYALASPSMAKEALLKKFETVEQRQRERSDKLRSAFSAQENELQPPL” here?
**A.** soluble

**Q.** With “GPGSMTTAASEGIVSREQLQMMLHVILHSTDNNERRNVEKSVVQLLTTPSTLTLLMVMLRDVQGSSPGVRQLAAVLLRKKVLSLWRTIPSESRGDFKGALLEQLGCEPVKAVRLALAHLVTRVAKADAMDEDGGWPELNYAIRAAVIDPRAEMRELAMVLAYSVAEVMSEADTHCLPVVEAVLQGMLDSEDAVQRSAVKAVGTLFVFMRGQTKVWEQLLQQLVPQCLALLTKCGTEETKTNLCVDVLDLLEQLVEDLSVKKHGALLRSVALEVLSVMTNGAIQPRVRQSCAEVLASLVNQKPKFVSTTVLEPLVSACVQVMSEDNAISLPEVAHTEGMENCDDSQSDENDAADMLHVDPPCLFAGRLLSTIATKVAAKSFTGALLPLISPVAQSPQAVGPTGAKSFDPRSCLFGRG” as the sequence, how does the “soluble on expression in E. coli” value read?
**A.** not soluble

**Q.** Which “soluble on expression in E. coli” value does the source give for “GPGSMTTPNFELYGYFRSSCSGRLRIAFHLKSIPYTRHPVNLLKGEQHSDTYKSLNPTNTVPLLVVSNINNTVSPSSASFSIGQSLAALEYLEEALPTNARPLLPPISNPVARAHVRTICNIIACDVQPVTNLKIQKKVKALDGDPTVWSRDLATQGFGAVEKLLELSAGRFCVGDEITLADVCLVPAVWAAERVGMDLARFPITKRVFEEMLKEEAVQKAHWQKQEDTPEDLRA” here?
**A.** soluble

**Q.** Which “soluble on expression in E. coli” value does the source give for “GPGSMTVVRAALLGFGTVGQGIYKIVQQRREQLKQKLGGAELVIVKILVRDLRKRSRVLPDGYASDAKLFTNNIEDVFRADVQVIFEATVGEEPAFTYLQRAIVEHGCSVITANKVMFARYGATLQELAASCTPTSSFPATRVYVGFEATVAAGVPIIKTLQNMCHVQQVRKIEGIVNGTSNYILTELREYPEKSFEEVLKKSQELGYAEADPTNDISGHDAFMKLLVMVAIAFGHQPSRSTVPVTGIDTLTPEMLQDARAKGLRYRHVVSAAMEGAATSSCALKSSAAEGEEAQPRTPPLHERLTCSVKPMLLGPEHPLYHMDGTTSAVSVWTDYLGVVTISGPGAGMYCTASAMMEDYAVWMEAFRRP” here?
**A.** not soluble

**Q.** With “GPGSMVRIRSLAKELRQLELQKQTASLPPPRAASSDDVLDDATRSATSSRKPEAPSCSSSPRDGDILTNAAHASTTAEAEAVPSSSPASRTVAAAEPQPTSAFPLSQLSLSSPDGAHNRSRNSLYSLGGSRFNILLGGSHGDGGACRKSQVRKATRACASGGGKNGAATATATQVPQRRGEAGGSSLLEKGKDGEVVANPAPPLGTSSGIPTRPPFKRLLAQPFSHVLVCDFEATCASGSVHYPHEIIEFPVVVLDTATLRIVAEFHRYVRPLRNPKLTAFCTELTGITQEMVDVADPLPTVVAQFQDWLKTEVYPLCWMWARHYGPNRLSHNLKSEQRRFVYDEHTDAAKANTSAEAMVCMATDGPWDMRRFMHQCSVLRDGVDFPPVCYRYINVRHSYSDHFKCRQAKLTHMLKKMSMSFEGRRHSGIDDTRNIARVLAELFARGYRVHHVSTITYAHRGDAFLESNRAAQELLSEFGETDETHTSKHANAHKGGGRQRGVKRA” as the sequence, how does the “soluble on expression in E. coli” value read?
**A.** not soluble

**Q.** With “GPGSRVRDKKDMDASELELRRVQGSLNKLTDKNFDAVVEEALSPDLVLNPLVLKGAVDIIFNKAMAEPVFSGIYAQLCQRIKVYEQDLVAEAAENPTSELGQLMAAVQAGDEDQKNVNGRVRNALVKRCQEFHDSFVKQPPPRNAEAEEQLRKRNMANIKFVGELYMRSLISHRVILAVCSTALVLGFIPSPKLVTTDADLEMMVSLMNVIGKRFDENAGMALNHVPKDAAAAAHPHDTIWRALNSSMNDPRFSRRIRFLIQNLLEWRNDGWKPKESPAQGSSGGSADDSNNTT” as the sequence, how does the “soluble on expression in E. coli” value read?
**A.** not soluble

**Q.** With “GPLGMATEEAIIRIPPYHYIHVLDQNSNVSRVEVGPKTYIRQDNERVLFAPVRMVTVPPRHYCIVANPVSRDAQSSVLFDVTGQVRLRHADQEIRLAQDPFPLYPGELLEKDITPLQVVLPNTALHLKALLDFEDKNGDKVMAGDEWLFEGPGTYIPQKEVEVVEIIQATVIKQNQALRLRARKECFDRDGKERVTGEEWLVRSVGAYLPAVFEEVLDLVDAVILTEKTALHLRARQNFKDLRGVAHRTGEEWLVTVQDTEAHVPDVYEEVLGVVPITTLGPRHYCVILDPMGPDGKNQLGQKRVVKGEKSFFLQPGERLERGIQDVYVLSEQQGLLLKALQPLEEGEGEERVAHQAGDRWLIRGPLEYVPSAKVEVVEERQAIPLD” as the sequence, how does the “soluble on expression in E. coli” value read?
**A.** soluble

**Q.** With “GPLGSASAAASGKEGVEITYGSAIKLMHEKTKFRLHSHDVPYGSGSGQQSVTGFPGVVDSNSYWIVKPVPGTTEKQGDAVKSGATIRLQHMKTRKWLHSHLHASPISGNLEVSCFGDDTNSDTGDHWKLIIEGSGKTWKQDQRVRLQHIDTSGYLHSHDKKYQRIAGGQQEVCGIREKKADNIWLAAEGVYLPLNESSK” as the sequence, how does the “soluble on expression in E. coli” value read?
**A.** soluble

**Q.** Which “soluble on expression in E. coli” value does the source give for “GPLGSEAQSEKEEAPKPLHKVVVCVSKKLSKKQSELNGIAASLGADYRWSFDETVTHFIYQGRPNDTNREYKSVKERGVHIVSEHWLLDCAQECKHLPESLYPHTYNPK” here?
**A.** soluble

**Q.** For “GPLGSLGRRWGPNVQRLACIKKHLRSQGITMDELPLIGGCELDLACFFRLINEMGGMQQVTDLKKWNKLADMLRIPKTAQDRLAKLQEAYCQYLLSYDSLSPEEHRRLEKEVLMEKEILEK”, which “soluble on expression in E. coli” value is on record?
**A.** soluble

**Q.** For “GPLGSPRNANDNNQFYQQKQRQALGEQLYKKVSAKTSNEEAAGKITGMILDLPPQEVFPLLESDELFEQHYKEASAAYESFKKEQEQQTEQA”, which “soluble on expression in E. coli” value is on record?
**A.** soluble
